From patent publication US20260209362A1 (VIB VZW, published 2026)

T1: biotinylated recombinant human IL-12Rβ2 (human, UniProt Q99665 24-622, random biotinylated)
T1 construct: Recombinant protein produced in-house; also called hIL-12RB2; human IL-12RB2
T1 sequence: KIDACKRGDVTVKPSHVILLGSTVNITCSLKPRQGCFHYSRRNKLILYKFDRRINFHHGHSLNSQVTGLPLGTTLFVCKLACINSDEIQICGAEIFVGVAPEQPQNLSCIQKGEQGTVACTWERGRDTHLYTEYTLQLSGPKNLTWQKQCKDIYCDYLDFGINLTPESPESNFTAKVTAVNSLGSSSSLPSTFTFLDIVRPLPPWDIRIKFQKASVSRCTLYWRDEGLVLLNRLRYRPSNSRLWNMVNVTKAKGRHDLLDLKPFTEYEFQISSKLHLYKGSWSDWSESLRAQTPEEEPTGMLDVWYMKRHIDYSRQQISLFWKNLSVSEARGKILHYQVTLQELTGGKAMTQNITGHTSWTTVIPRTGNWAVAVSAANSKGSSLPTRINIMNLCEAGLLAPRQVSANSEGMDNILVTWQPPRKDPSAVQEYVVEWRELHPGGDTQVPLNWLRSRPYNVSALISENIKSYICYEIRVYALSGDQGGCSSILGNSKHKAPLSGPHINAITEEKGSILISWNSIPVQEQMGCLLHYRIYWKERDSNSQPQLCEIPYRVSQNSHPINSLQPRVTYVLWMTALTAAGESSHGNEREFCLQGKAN

T2: biotinylated recombinant mouse IL-12Rβ2 (mouse, UniProt P97378 24-637, random biotinylated)
T2 construct: Recombinant protein produced in-house; also called mIL-12RB2; mouse IL-12RB2
T2 sequence: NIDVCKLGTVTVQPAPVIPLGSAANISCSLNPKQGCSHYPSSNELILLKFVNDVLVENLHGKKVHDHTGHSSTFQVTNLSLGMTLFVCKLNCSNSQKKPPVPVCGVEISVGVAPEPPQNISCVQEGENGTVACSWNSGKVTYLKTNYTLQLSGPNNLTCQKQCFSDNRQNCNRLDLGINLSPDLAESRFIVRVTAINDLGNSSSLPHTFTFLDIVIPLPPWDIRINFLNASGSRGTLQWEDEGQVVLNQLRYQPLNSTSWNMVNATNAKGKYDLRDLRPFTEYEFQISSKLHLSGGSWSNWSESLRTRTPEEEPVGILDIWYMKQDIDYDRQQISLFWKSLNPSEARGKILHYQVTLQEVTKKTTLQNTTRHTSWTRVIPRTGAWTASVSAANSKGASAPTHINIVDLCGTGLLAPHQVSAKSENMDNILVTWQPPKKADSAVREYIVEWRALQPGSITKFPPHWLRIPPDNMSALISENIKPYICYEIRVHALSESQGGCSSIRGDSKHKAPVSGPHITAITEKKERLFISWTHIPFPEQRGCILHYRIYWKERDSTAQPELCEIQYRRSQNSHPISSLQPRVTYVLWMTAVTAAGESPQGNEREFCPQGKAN


Columns and labels:
[1] = biological target: T1, biotinylated recombinant human IL-12Rβ2; test: BLI, P.E., off-rate ranking
[2] = biological target: T1, biotinylated recombinant human IL-12Rβ2; test: ELISA, P.E., biotinylated antigen
[3] = biological target: T2, biotinylated recombinant mouse IL-12Rβ2; test: ELISA, P.E., biotinylated antigen

Binder	Response [1]	koff [1]	ELISA hIL-12RB2/control [2]	ELISA mIL-12RB2/control [3]
anti-IL-12Rβ2 VHH clone 3CRHS163 (clone ID 20438) (VHH, not shown: small tags and cut ends, periplasmic extract) VHH: QVQLQESGGGLVQPGGSLRLSCTASGFAFSTYWMYWIRQSPEKGFEWVSVVNTGGDITYYADSVKGRFTISRDNAKNTLYLQMNSLKPEDTALYYCARDRTTMSYTRTYYRGGQGTQVTVSS	0.339	0.00302 s⁻¹	3.58	0.927
anti-IL-12Rβ2 VHH clone 3CRH59 (clone ID 20385) (VHH, not shown: small tags and cut ends, periplasmic extract) VHH: QVQLQESGGGLVQPGGSLRLSCTASGFAFSSYWMYWVRQTPGKGFEWVSVVNPGGEITYYGDSMEDRFTISRDNAKNTLYLQMNSLKPEDTGLYYCARDRTTIDYTRTYYRGGQGTQVTVSS	0.487	0.00453 s⁻¹	15.9	1.89
anti-IL-12Rβ2 VHH clone 3CRHS99 (clone ID 20427) (VHH, not shown: small tags and cut ends, periplasmic extract) VHH: QVQLQESGGGLVQPGGSLRLSCKASGFTFSTYAMSWVRQAPGKGLEWVSAINSGGLSTDYADSVEGRFTISRDDAKNMLFLQMNSLKAEDTARYYCAKYEDCSDYMCHRDRAGYWGQGTQVTVSS	0.259	0.00405 s⁻¹	3.13	0.908
anti-IL-12Rβ2 VHH clone 3CRHS106 (clone ID 20429) (VHH, not shown: small tags and cut ends, periplasmic extract) VHH: QVQLQESGGGLVQPGGSLRLSCKASGFTFSTYAMSWVRQAPGKGLEWVSAVNSGGLSTDYADSVEGRFTISRDDAKNMLFLQMNSLKPEDTARYYCAKYEDCSDYMCHRDRAGYWGQGTQVTVSS	0.297	0.00355 s⁻¹	10.2	1.03
anti-IL-12Rβ2 VHH clone 3CRH25 (clone ID 20378) (VHH, not shown: small tags and cut ends, periplasmic extract) VHH: QVQLQESGGGLVQAGDSLRLSCTASGHTFSRYTTIGWFRQAPGKDREFVAAIRWSGDITDYADAVKGRFTISRDNVKNTVYLQMNSLNPEDTAVYYCARGYSEYGVLSRNRGLYAYWGQGTQVTVSS	0.523	0.00205 s⁻¹	5.16	1.04
anti-IL-12Rβ2 VHH clone 3CRH64 (clone ID 20386) (VHH, not shown: small tags and cut ends, periplasmic extract) VHH: QVQLQESGGGLVQAGGSLRLSCTASGHTFSRYTTIGWFRQAPGKDREFVAAIRWSGDITDYADAVKGRFTISRDNVKNTVYLQTNSLNPEDTAVYYCARGYSEYGVLSRNRGLYAYWGQGTQVTVSS	0.726	0.00428 s⁻¹	4.94	1.41
anti-IL-12Rβ2 VHH clone 3CRHS77 (clone ID 20425) (VHH, not shown: small tags and cut ends, periplasmic extract) VHH: QVQLQESGGGLVQAGGSLRLSCTASGHTFSSYTTIGWFRQAPGKEREFVAAIGWSGDITDYADAVKGRFTISRHNVENTVYLQMNSLNPEDTAVYYCARGYSEYGVLSRNRGLYAYWGQGTQVTVSS	0.551	0.00426 s⁻¹	6.37	1.02
anti-IL-12Rβ2 VHH clone 3CAH32 (clone ID 20357) (VHH, not shown: small tags and cut ends, periplasmic extract) VHH: QVQLQESGGGLVQPGGSLRLSCAASGSILRINLMGWYRQVPGKQRELVAEMSTGGSTTYVDSVKGRFTISRDNAKNTVYLQMNSLKPEDTAVYYCNAKAWQLGRLENDDWGQGTQVTVSS	0.607	0.00419 s⁻¹	4.31	0.842
anti-IL-12Rβ2 VHH clone 3CAHS102 (clone ID 20399) (VHH, not shown: small tags and cut ends, periplasmic extract) VHH: QVQLQESGGGLVQPGGSLRLSCAASGSILRINLMGWYRQVPGKQRELVAEMSTGGSTTYVDSVEGRFTISRDNAKNTVYLQMNSLKPEDTAVYYCNAKAWQLGRLENDDWGQGTQVTVSS	0.323	0.00267 s⁻¹	3.54	1.02
anti-IL-12Rβ2 VHH clone 3CAHS79 (clone ID 20398) (VHH, not shown: small tags and cut ends, periplasmic extract) VHH: QVQLQESGGGLVQPGGSLRLTCVASGFPFSTHAMSWVRQPPGKGREWISAINSGGDSTDYADSVMGRFTISRDNAKNTVYLQMNSLKSEDTAVYYCAKYEDCSDYDCSSRASWGQGTQVTVSS	0.268	0.00434 s⁻¹	3.71	1.04
anti-IL-12Rβ2 VHH clone 3CAHS171 (clone ID 20407) (VHH, not shown: small tags and cut ends, periplasmic extract) VHH: QVQLQESGGGLVQPGGSLRLTCVASGFPFSTHAMSWVRQPPGKGREWISAINSGGDSTDYADSVMGRFTISRDNAKNTVYLQMNSLKSEDTAAYYCAKYEDCSDYDCSSRASWGQGTQVTVSS	0.195	0.00431 s⁻¹	3.27	0.961
anti-IL-12Rβ2 VHH clone 3CRHS31 (clone ID 20418) (VHH, not shown: small tags and cut ends, periplasmic extract) VHH: QVQLQESGGGLVQAGGSLRLSCAASGFTFSTYAMSWVRQAPGKGLEWVSSVNSGGLSTDYADSVEGRFTISRDDAKNMLFLQMNSLKPEDTARYYCAKYEDCSDYVCDRAGYWGQGTQVTVSS	0.234	0.00429 s⁻¹	10.9	1.16
anti-IL-12Rβ2 VHH clone 3CRHS51 (clone ID 20421) (VHH, not shown: small tags and cut ends, periplasmic extract) VHH: QVQLQESGGGLVQPGGSLRLSCAASGFTFSTYAMSWVRQAPGKGLEWVSAVNSGGLSTDYADSVEGRFTISRDDAKNMLFLQMNRLKPEDTARYYCAKYEDCSDYVCDRAGYWGQGTQVTVSS	0.327	0.0043 s⁻¹	12	0.946
anti-IL-12Rβ2 VHH clone 3CAHS41 (clone ID 20394) (VHH, not shown: small tags and cut ends, periplasmic extract) VHH: QVQLQESGGGLVQAGDSLRLSCAASGRTFDTYIVGWFRQAPGKEREFVSALSWSDDTTIRDDSLRGRFTISRDNAKNTVYLLMNSLKPEDTAVYYCAAKAKPPAATWSSYRNREWYDYWGQGTQVTVSS	0.609	0.00441 s⁻¹	8.77	1.35
anti-IL-12Rβ2 VHH clone 3CAHS180 (clone ID 20410) (VHH, not shown: small tags and cut ends, periplasmic extract) VHH: QVQLQESGGGLVQAGDSLRLSCAASGRTFDTYIVGWFRQAPGKEREFVSALSWSDDTTIRDDSLRGRFTLSRDNAKNTVYLLMNSLKPEDTAVYYCAAKAKPPAATWSSYRNREWYDYWGQGTQVTVSS	0.376	0.00265 s⁻¹	4.78	1.19
anti-IL-12Rβ2 VHH clone 3CRH28 (clone ID 20380) (VHH, not shown: small tags and cut ends, periplasmic extract) VHH: QVQLQESGGGLVQPGGSLTLSCAASGFTFSSNAMSWVRQAPGKGLEWVSSISSGGGTTYYTDSVKGRFTTARDNAKNTLYLRMNSLKPEDTAVYYCSKSSTGSGSRGQGTQVTVSS	0.4	0.00428 s⁻¹	3.64	0.975
anti-IL-12Rβ2 VHH clone 3CAH28 (clone ID 20356) (VHH, not shown: small tags and cut ends, periplasmic extract) VHH: QVQLQESGGGLVQSGASLRLSCAASERTLSGYAMGWFRQAPGKEREFVAAIRWSGSSTYYAESVEGRFTISRDNAKNTVYLQMNILKPEDTAVYYCAAGSDYADEYDYWGQGTQVTVSS	0.576	0.00483 s⁻¹	7.57	0.4
anti-IL-12Rβ2 VHH clone 3CAH60 (clone ID 20361) (VHH, not shown: small tags and cut ends, periplasmic extract) VHH: QVQLQESGGGLVQPGGSLILSCVASGFAMDYLTMGWSREAPRNEREDISCIDTSGRSTDYLDSVKGRFTISRDNAKNTLYLHMNDLKPEDTAEYYCLASTSYCGAGYEYRGQGTQVTVSS	0.59	0.00517 s⁻¹	3.91	1.9
anti-IL-12Rβ2 VHH clone 2CRH62 (clone ID 20368) (VHH, not shown: small tags and cut ends, periplasmic extract) VHH: QVQLQESGGGLVQPGGSLRLSCVESGRTFTVYDMGWFRQAPGKEREIVAAISADGATSIYQDSVKGRFTISRDNDAKNTVYLQMNSLKPEDTAVYYCAAGRSLIYNLYRANNTDYWGQGTQVTVSS	0.643	0.00622 s⁻¹	3.51	0.868
